Experimental data reported in patent US20150175697A1 (MacroGenics, published 2015).

Assays:
[1] = target: soluble CD16A (sCD16A) (human) (UniProt P08637); experiment: SPR (BIAcore), receptor immobilised
[2] = target: T1, human serum albumin (HSA) (human, UniProt P02768 25-609); experiment: Albumin Binding Assay; x axis hE16scFv-ABD Concentration (ug/ml); albumin taken as HSA as in Table 23
T1 construct: also called HRP-human albumin

[3] = target: T1, human serum albumin (HSA); experiment: HSA binding class (+++ 0.7-1.0; ++ 0.4-0.7; + 0.1-0.4)
[4] = target: T1, human serum albumin (HSA); experiment: Albumin Binding Assay; x axis hE16scFv-ABD Concentration (ug/ml); albumin taken as HSA as in Table 23; remark: listed apart in the source
[5] = target: T1, human serum albumin (HSA); experiment: ABD-Binding Elisa; x axis Protein concentration (ug/ml); albumin taken as HSA as in Table 23
soluble CD32B (sCD32B) [6] = target: T2, soluble CD32B (sCD32B) (human, UniProt P31994 43-217); experiment: sandwich ELISA: sCD32B coated (sCD32B-Ig, 2 ug/ml), diabody titrated, labelled sCD16A as probe; signal needs both bindings
T2 construct: extracellular domain; also called FcγRIIB; soluble CD32B ectodomain
T2 sequence (looked up): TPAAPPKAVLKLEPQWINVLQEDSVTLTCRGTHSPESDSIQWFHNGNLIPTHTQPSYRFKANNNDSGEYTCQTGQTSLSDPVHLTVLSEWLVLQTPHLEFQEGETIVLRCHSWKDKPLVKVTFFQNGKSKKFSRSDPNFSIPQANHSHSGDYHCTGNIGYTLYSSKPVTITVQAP
Description: The binding of eluted and purified diabodies was characterized by ELISA assay, as described in 5.4.2. 50 ul/well of a 2 ug/ml solution of sCD32B-Ig was coated on 96-well Maxisorp plate in Carbonate buffer at 4° C. over night. The plate was washed three times with PBS-T (PBS, 0.1% Tween 20) and blocked by 0.5% BSA in PBS-T for 30 minutes at room temperature. […] The plate was then incubated at room temperature for 1 hour. After washing with PBS-T three times, 50 ul/well of 0.2 ug/ml sCD16A-Biotin was added to each well. The plate was again incubated at room temperature for 1 hour. After washing with PBS-T three times, 50 ul/well of a 1:5000 dilution of HRP conjugated streptavidin (Amersham Pharmacia Biotech) was used for detection. The HRP-streptavidin was allowed to incubate for 45 minutes at room temperature. The plate was washed with PBS-T three times and developed using 80 ul/well of TMB substrate. After a 10 minute incubation, the HRP-TMB reaction was stopped by adding 40 ul/well of 1% H₂SO₄.

soluble CD32B (sCD32B) [7] = target: T2, soluble CD32B (sCD32B); experiment: sandwich ELISA on conditioned medium: soluble FcRIIb-G2-Agly coated (100 ng/well), diabody titrated, FcRIIIa-G2-Biotin probe and streptavidin-HRP; signal needs both bindings
Description: After three days in culture, the conditioned medium were harvested and characterized by binding ELISA.
100 ng/well of soluble FcRIIb-G2-Agly was coated on 96-well Maxisorp plate in Carbonate buffer at 40° C. overnight. Plate was washed three times with PBS/0.1% Tween20 and then blocked by 0.5% BSA in PBS/0.1% Tween 20 for 30 mins at room temperature before adding diabodies. […] The plate was incubated at room temperature for 1 hour. After washed with PBS/0.1% Tween20 three times, 10 ng/well of FcRIIIa-G2-Biotin was added to the plate. The plate was incubated at room temperature for 1 hour. After washed with PBS/0.1% Tween20 three times, 50 ul of 1:5000 dilution of HRP conjugated Streptavidin (Amersham Pharmacia Biotech) was used for detection. After 45 minutes incubation at room temperature, the plate was washed with PBS/0.1% Tween20 three times and developed using TMB substrate. After 10 minutes incubation, the reaction was stopped by 1% H2SO4. The OD450 nm was read by SOFTmax program.

[8] = target: T1, human serum albumin (HSA); experiment: SPR sensorgrams with HSA; printed under the panel
soluble CD32B (sCD32B) [9] = target: T2, soluble CD32B (sCD32B); experiment: SPR sensorgrams with sCD32B; printed under the panel
soluble CD16A(158F) = target: T3, soluble CD16A(158F) (human, UniProt P08637 17-208); experiment: SPR sensorgrams with sCD16A (158F per paragraph 834); printed under the panel
T3 construct: extracellular domain; also called CD16A(F158); sCD16A
T3 sequence (P08637 17-208): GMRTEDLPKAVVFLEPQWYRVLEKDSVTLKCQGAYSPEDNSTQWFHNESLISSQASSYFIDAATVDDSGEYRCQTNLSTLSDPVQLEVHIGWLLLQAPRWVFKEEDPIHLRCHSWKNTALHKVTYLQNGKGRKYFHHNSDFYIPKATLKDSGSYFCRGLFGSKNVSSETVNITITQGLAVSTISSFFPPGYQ

soluble CD16A (sCD16A) [10] = target: T4, soluble CD16A (sCD16A) (human, UniProt P08637 17-208); experiment: dual ELISA: CD16A coated, DART titrated, biotinylated sCD32B detection, without HSA
T4 construct: extracellular domain; given only as soluble; immobilised in SPR, plate coat or biotin/HRP-labelled probe in ELISA; also called FcγRIIIA; sCD16A-Biotin
T4 sequence (P08637 17-208): as above

soluble CD16A (sCD16A) [11] = target: T4, soluble CD16A (sCD16A); experiment: dual ELISA: CD16A coated, DART titrated, biotinylated sCD32B detection, with 3 mg/ml HSA
soluble CD32B (sCD32B) [12] = target: T2, soluble CD32B (sCD32B); experiment: sandwich ELISA on conditioned medium: soluble FcRIIb-G2-Agly coated, FcRIIIa-G2-Biotin probe and streptavidin-HRP
soluble CD16A (sCD16A) [13] = target: T4, soluble CD16A (sCD16A); experiment: as above

Sequence of soluble CD16A (sCD16A) (human) (P08637 17-208): as above

## h3G8 scFv
[1]
  Kd: 38.7 nM

B1: ABD3 I65A/N66D (other)
chain: LAEAKVLANRELDKYGVSDYYKNLADNAKTVEGVKALIDEILAALP
notes: also called 65A/66D
[2]
  binding result: binds

B2: ABD3 T70S (other)
chain: LAEAKVLANRELDKYGVSDYYKNLINNAKSVEGVKALIDEILAALP
[3]
  HSA binding: 0.7 to 1

B3: ABD3 Y61A/N66D (other)
chain: LAEAKVLANRELDKYGVSDYAKNLIDNAKTVEGVKALIDEILAALP
notes: also called 61A/66D
[4]
  binding result: binds

B4: ABD3 L64A/I65A (other)
chain: LAEAKVLANRELDKYGVSDYYKNAANNAKTVEGVKALIDEILAALP
notes: also called 64A/65A
[4]
  binding result: binds

B5: ABD3 L64A/I65A/V71A (ABD (AAA)) (other)
chain: LAEAKVLANRELDKYGVSDYYKNAANNAKTAEGVKALIDEILAALP
notes: also called 64A/65A/71A
[3]
  HSA binding: 0.4 to 0.7

B6: ABD3 Y61A/N66S (other)
chain: LAEAKVLANRELDKYGVSDYAKNLISNAKTVEGVKALIDEILAALP
notes: also called 61A/66S
[5]
  binding result: binds

B7: ABD3 L64A/N66D (other)
chain: LAEAKVLANRELDKYGVSDYYKNAIDNAKTVEGVKALIDEILAALP
notes: also called 64A/66D
[4]
  binding result: binds

B8: ABD3 N66S (other)
chain: LAEAKVLANRELDKYGVSDYYKNLISNAKTVEGVKALIDEILAALP
[5]
  binding result: binds

B9: Y61A/T70S (other)
albumin-binding domain: LAEAKVLANRELDKYGVSDYAKNLINNAKSVEGVKALIDEILAALP
[5]
  binding result: binds

B10: h2B6-h3G8 covalent bispecific diabody (CBD) (bispecific antibody)
chain 1: EIVLTQSPDFQSVTPKEKVTFTCRTSQSIGTNIHWYQQKPDQSPKLLIKEVSESISGVPSRFSGSGSGTDFTLTINSLEAEDAATYYCQQSNTWPFTFGGGTKVEIKGGGSGGGGQVTLRESGPALVKPTQTLTLTCTFSGFSLSTSGMGVGWIRQPPGKALEWLAHIWWDDDKRYNPALKSRLTISKDTSKNQVVLTMTNMDPVDTATYYCAQINPAWFAYWGQGTLVTVSSLGGC
chain 2: DIVMTQSPDSLAVSLGERATINCKASQSVDFDGDSFMNWYQQKPGQPPKLLIYTTSNLESGVPDRFSGSGSGTDFTLTISSLQAEDVAVYYCQQSNEDPYTFGQGTKLEIKGGGSGGGGQVQLVQSGAEVKKPGASVKVSCKASGYTFTNYWIHWVRQAPGQGLEWIGVIDPSDTYPNYNKKFKGRVTMTVVVSTSTAYMELRSLRSDDTAVYYCARNGDSDYYSGMDYWGQGTTVTVSSLGGC
notes: covalent heterodimer of constructs 1 and 2; also called h2B6-h3G8 CBD; h2B6-h3G8 diabody
Soluble CD32B (sCD32B) [6]
  EC50 (read off the curve): ~0.05 µg/mL

B11: Hu2B6 4.5-Hu3G8 5.1 (bispecific antibody)
chain 1: DIVMTQSPDSLAVSLGERATINCKASQSVDFDGDSFMNWYQQKPGQPPKLLIYTTSNLESGVPDRFSGSGSGTDFTLTISSLQAEDVAVYYCQQSNEDPYTFGQGTKLEIKGGGSGGGGQVQLVQSGAEVKKPGASVKVSCKASGYTFTNYWIHWVRQAPGQGLEWIGVIDPSDTYPNYNKKFKGRVTMTVVVSTSTAYMELRSLRSDDTAVYYCARNGDSDYYSGMDYWGQGTTVTVSSLGGC
chain 2: EIVLTQSPDFQSVTPKEKVTFTCRTSQSIGTNIHWYQQKPDQSPKLLIKEVSESISGVPSRFSGSGSGTDFTLTINSLEAEDAATYYCQQSNTWPFTFGGGTKVEIKGGGSGGGGQVTLRESGPALVKPTQTLTLTCTFSGFSLSTSGMGVGWIRQPPGKALEWLAHIWWDDDKRYNPALKSRLTISKDTSKNQVVLTMTNMDPVDTATYYCAQINPAWFAYWGQGTLVTVSSLGGC
modifications: the two chains are joined by a disulfide between their C-terminal LGGC cysteines
notes: tested as conditioned medium of HEK-293 cells; also called Hu2B6 4.5-Hu3G8 5.1 biospecific diabody
Soluble CD32B (sCD32B) [7]
  EC50 (read off the curve): ~0.05 µg/mL

B12: hCD16-hCD32B ABD-DART (bispecific antibody)
chain 1: DIVMTQSPDSLAVSLGERATINCKASQSVDFDGDSFMNWYQQKPGQPPKLLIYTTSNLESGVPDRFSGSGSGTDFTLTISSLQAEDVAVYYCQQSNEDPYTFGQGTKLEIKGGGSGGGGQVQLVQSGAEVKKPGASVKVSCKASGYTFTNYWIHWVRQAPGQGLEWIGVIDPSDTYPNYNKKFKGRVTMTVVVSTSTAYMELRSLRSDDTAVYYCARNGDSDYYSGMDYWGQGTTVTVSSGGCGGGKVAALKEKVAALKEKVAALKEKVAALKEGGGNS
chain 2: EIVLTQSPDFQSVTPKEKVTFTCRTSQSIGTNIHWYQQKPDQSPKLLIKEVSESISGVPSRFSGSGSGTDFTLTINSLEAEDAATYYCQQSNTWPFTFGGGTKVEIKGGGSGGGGQVTLRESGPALVKPTQTLTLTCTFSGFSLSTSGMGVGWIRQPPGKALEWLAHIWWDDDKRYNPALKSRLTISKDTSKNQVVLTMTNMDPVDTATYYCAQINPAWFAYWGQGTLVTVSSGGCGGGEVAALEKEVAALEKEVAALEKEVAALEKGGGNSLAEAKVLANRELDKYGVSDYYKNLINNAKTVEGVKALIDEILAALP
notes: also called DART ABD fusion; hCD16-hCD32B EK ABD-DART
[8]
  Kd: 7.1 nM
  koff: 0.00064 s⁻¹
  kon: 90000 M⁻¹ s⁻¹
Soluble CD32B (sCD32B) [9]
  Kd: 30 nM
  koff: 0.0072 s⁻¹
  kon: 240000 M⁻¹ s⁻¹
Soluble CD16A(158F)
  Kd: 137 nM
  koff: 0.052 s⁻¹
  kon: 380000 M⁻¹ s⁻¹
Soluble CD16A (sCD16A) [10]
  EC50 (read off the curve): ~0.05 µg/mL
Soluble CD16A (sCD16A) [11]
  EC50 (read off the curve): ~0.06 µg/mL

B13: Hu3G8 5.1 (other)
chain 1: DIVMTQSPDSLAVSLGERATINCKASQSVDFDGDSFMNWYQQKPGQPPKLLIYTTSNLESGVPDRFSGSGSGTDFTLTISSLQAEDVAVYYCQQSNEDPYTFGQGTKLEIKGGGSGGGGQVTLRESGPALVKPTQTLTLTCTFSGFSLSTSGMGVGWIRQPPGKALEWLAHIWWDDDKRYNPALKSRLTISKDTSKNQVVLTMTNMDPVDTATYYCAQINPAWFAYWGQGTLVTVSSLGGC
chain 2: DIVMTQSPDSLAVSLGERATINCKASQSVDFDGDSFMNWYQQKPGQPPKLLIYTTSNLESGVPDRFSGSGSGTDFTLTISSLQAEDVAVYYCQQSNEDPYTFGQGTKLEIKGGGSGGGGQVTLRESGPALVKPTQTLTLTCTFSGFSLSTSGMGVGWIRQPPGKALEWLAHIWWDDDKRYNPALKSRLTISKDTSKNQVVLTMTNMDPVDTATYYCAQINPAWFAYWGQGTLVTVSSLGGC
modifications: homodimer of two identical chains, joined by a disulfide between the C-terminal LGGC cysteines
notes: monospecific diabody, conditioned medium; also called Hu3G8 5.1 diabody
Soluble CD32B (sCD32B) [12]
  binding result: no binding (tested: 0.5 ug/ml)

B14: Hu2B6 4.5 (other)
chain 1: EIVLTQSPDFQSVTPKEKVTFTCRTSQSIGTNIHWYQQKPDQSPKLLIKEVSESISGVPSRFSGSGSGTDFTLTINSLEAEDAATYYCQQSNTWPFTFGGGTKVEIKGGGSGGGGQVQLVQSGAEVKKPGASVKVSCKASGYTFTNYWIHWVRQAPGQGLEWIGVIDPSDTYPNYNKKFKGRVTMTVVVSTSTAYMELRSLRSDDTAVYYCARNGDSDYYSGMDYWGQGTTVTVSSLGGC
chain 2: EIVLTQSPDFQSVTPKEKVTFTCRTSQSIGTNIHWYQQKPDQSPKLLIKEVSESISGVPSRFSGSGSGTDFTLTINSLEAEDAATYYCQQSNTWPFTFGGGTKVEIKGGGSGGGGQVQLVQSGAEVKKPGASVKVSCKASGYTFTNYWIHWVRQAPGQGLEWIGVIDPSDTYPNYNKKFKGRVTMTVVVSTSTAYMELRSLRSDDTAVYYCARNGDSDYYSGMDYWGQGTTVTVSSLGGC
modifications: homodimer of two identical chains, joined by a disulfide between the C-terminal LGGC cysteines
notes: monospecific diabody, conditioned medium; also called Hu2B6 4.5 diabody
Soluble CD16A (sCD16A) [13]
  binding result: no binding (tested: 0.5 ug/ml)
